± gives the standard deviation of the averaged measurements.
Tested on: Saccharomyces cerevisiae
Assay: protein stability index of tFT-peptide fusion (C-terminal peptide) (PSI (0-1 scale)); higher = more stable (slower turnover)
Conditions: temperature: 30 C
Protocol: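 MPS profiling in S. cerevisiae of the yeast C-terminome library: the last 12 aa of each annotated ORF are fused to the C-terminus of a sfGFP-mCherry timer, after a GGGS linker. Cells are FACS-sorted into 8 mCherry/sfGFP bins and deep-sequenced. PSI runs from 0 (unstable) to 1 (stable); wild type and das1Δ backgrounds, two technical replicates each.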

[1] = genetic background: das1 deletion

| Sequence | protein stability index [1] | protein stability index (genetic background: wild type) |
| --- | --- | --- |
| NWDQHNPRNSIH [IRC10 C-terminal 12 aa] | 0.719 ± 0.013 | 0.78 ± 0.067 |
| LKNKKKLYKTKV [PPQ1 C-terminal 12 aa] | 0.7157 ± 0.0043 | 0.694 ± 0.017 |
| RQRQLKSPQNVL [TYW3 C-terminal 12 aa] | 0.714 ± 0.017 | 0.696 ± 0.046 |
| SSFEKFQYYSKA [AGP2 C-terminal 12 aa] | 0.72 ± 0.024 | 0.688 ± 0.049 |
| LRKDRQVEYPYK [MGM101 C-terminal 12 aa] | 0.723 ± 0.033 | 0.779 ± 0.035 |
| IDVELEEESFTW [FRE1 C-terminal 12 aa] | 0.698 ± 0.024 | 0.743 ± 0.022 |
| LCLLFFTFSLFF [GAS4 C-terminal 12 aa] | 0.3594 ± 0.0027 | 0.371 ± 0.016 |
| WAREQQKRQLSL [KAP95 C-terminal 12 aa] | 0.725 ± 0.0096 | 0.729 ± 0.019 |
| VGELDIKFDLKF [RTF1 C-terminal 12 aa] | 0.733 ± 0.018 | 0.696 ± 0.0088 |
| LQHYRTHLKKGQ [NRG1 C-terminal 12 aa] | 0.7007 ± 0.0015 | 0.6784 ± 0.0039 |
| TNNRHKYQNGRK [YLL032C C-terminal 12 aa] | 0.7 ± 0.053 | 0.664 ± 0.0094 |
| IDKLRNSFYKTI [SMU2 C-terminal 12 aa] | 0.687 ± 0.028 | 0.515 ± 0.028 |
| HGGNISSSTYQA [GND2 C-terminal 12 aa] | 0.698 ± 0.02 | 0.722 ± 0.054 |
| AVSEELIKMWYD [GCN3 C-terminal 12 aa] | 0.7218 ± 0.0015 | 0.736 ± 0.037 |
| VWTLELSVIGVQ [WHI2 C-terminal 12 aa] | 0.542 ± 0.011 | 0.572 ± 0.011 |
| ENKPDSTFGIIL [YOR170W C-terminal 12 aa] | 0.718 ± 0.019 | 0.749 ± 0.11 |
| RACPLRPKSLIA [YMR315W-A C-terminal 12 aa] | 0.655 ± 0.0078 | 0.667 ± 0.032 |
| GKNGARLSEIGW [SNZ2 C-terminal 12 aa] | 0.7224 ± 0.0061 | 0.691 ± 0.025 |
| KWLLKPCIYKRR [RRP8 C-terminal 12 aa] | 0.717 ± 0.0061 | 0.691 ± 0.016 |
| NVSDLFQWQNAK [CAT8 C-terminal 12 aa] | 0.744 ± 0.017 | 0.683 ± 0.047 |
| EIFNDFSKRCCF [CDC43 C-terminal 12 aa] | 0.7326 ± 0.0031 | 0.73168 ± 0.00037 |

| Sequence | protein stability index [1] | protein stability index (genetic background: wild type) |
| --- | --- | --- |
| DWAPGKQLEMNH [JAC1 C-terminal 12 aa] | 0.699 ± 0.018 | 0.743 ± 0.042 |
| VIWDNNTKFCWF [YGR111W C-terminal 12 aa] | 0.742 ± 0.0097 | 0.73063 ± 0.00022 |
| DEYFNEYNNNSN [TFB1 C-terminal 12 aa] | 0.7196 ± 0.0065 | 0.675 ± 0.013 |
| TSSFTEAVIKRL [IDH2 C-terminal 12 aa] | 0.696 ± 0.011 | 0.6628 ± 0.0025 |
| LEVYASGNPNAT [NDC1 C-terminal 12 aa] | 0.697 ± 0.016 | 0.692 ± 0.0073 |
| DGIRQVDDFQAQ [PRE1 C-terminal 12 aa] | 0.701 ± 0.012 | 0.658 ± 0.0071 |
| FDVIKECQTLSN [PUG1 C-terminal 12 aa] | 0.683 ± 0.037 | 0.6484 ± 0.0017 |
| IKLADAIYKGLE [FOL1 C-terminal 12 aa] | 0.702 ± 0.013 | 0.6648 ± 0.0011 |
| IGEWTISYTSLI [IPA1 C-terminal 12 aa] | 0.66 ± 0.015 | 0.669 ± 0.041 |
| IMICFLERRKGN [FYV1 C-terminal 12 aa] | 0.652 ± 0.018 | 0.638 ± 0.075 |
| WRPQQPGQIEQA [YLR101C C-terminal 12 aa] | 0.723 ± 0.03 | 0.6668 ± 0.00094 |
| KDELERVAKSNR [RPS5 C-terminal 12 aa] | 0.6889 ± 0.0032 | 0.694 ± 0.017 |
| VKNSPRLLLFFI [YOL160W C-terminal 12 aa] | 0.673 ± 0.041 | 0.53 ± 0.011 |
| DTTFPQDQHDID [PUT7 C-terminal 12 aa] | 0.696 ± 0.012 | 0.629 ± 0.059 |
| ADDDFDADMELE [CDC16 C-terminal 12 aa] | 0.685 ± 0.0038 | 0.728 ± 0.028 |
| QASSEKKWYKFW [COX20 C-terminal 12 aa] | 0.755 ± 0.018 | 0.6753 ± 0.0053 |
| LENLSQEYCSEI [YBR096W C-terminal 12 aa] | 0.715 ± 0.029 | 0.72 ± 0.023 |
| RSPKGNSIIEEI [BTN2 C-terminal 12 aa] | 0.695 ± 0.026 | 0.655 ± 0.02 |
| KPIGEAAAIKEK [YLH47 C-terminal 12 aa] | 0.696 ± 0.027 | 0.707 ± 0.044 |
| VFVTGILSTVYI [AIT1 C-terminal 12 aa] | 0.6444 ± 0.0011 | 0.6108 ± 0.0049 |
| RRQSPPGYYVIR [YLR311C C-terminal 12 aa] | 0.747 ± 0.0064 | 0.708 ± 0.027 |

| Sequence | protein stability index [1] | protein stability index (genetic background: wild type) |
| --- | --- | --- |
| YVPPPTYTEMAS [ART10 C-terminal 12 aa] | 0.7074 ± 0.0038 | 0.66 ± 0.011 |
| LKHFVSAPSSSL [MRK1 C-terminal 12 aa] | 0.699 ± 0.011 | 0.656 ± 0.0095 |
| GCGEDLKKDILS [DOP1 C-terminal 12 aa] | 0.71 ± 0.017 | 0.668 ± 0.024 |
| KALKWEEQELNM [CCM1 C-terminal 12 aa] | 0.711 ± 0.015 | 0.729 ± 0.057 |
| DAMEFIAQSHKS [OCT1 C-terminal 12 aa] | 0.694 ± 0.011 | 0.719 ± 0.021 |
| RYRNQIDDFDFS [IMP3 C-terminal 12 aa] | 0.71 ± 0.034 | 0.754 ± 0.097 |
| YTSWQTIKMWSQ [AVT3 C-terminal 12 aa] | 0.658 ± 0.007 | 0.654 ± 0.029 |
| SQSFNPLESVQE [YPL229W C-terminal 12 aa] | 0.7038 ± 0.0039 | 0.709 ± 0.1 |
| QIPPEVQKWYYV [PPA2 C-terminal 12 aa] | 0.71952 ± 0.00036 | 0.593 ± 0.02 |
| MDSGLDLEFCKP [YKR075W-A C-terminal 12 aa] | 0.687 ± 0.019 | 0.692 ± 0.045 |
| GYDTVASLDFWG [ROM2 C-terminal 12 aa] | 0.742 ± 0.018 | 0.761 ± 0.047 |
| ADQELFMGIMNA [NMD5 C-terminal 12 aa] | 0.676 ± 0.012 | 0.677 ± 0.0097 |
| MMNFFRDLKYGH [ODC2 C-terminal 12 aa] | 0.704 ± 0.004 | 0.693 ± 0.018 |
| NIIHSGDVLLAE [LEU9 C-terminal 12 aa] | 0.677 ± 0.019 | 0.708 ± 0.035 |
| PNKDVEQGNDMV [AKR1 C-terminal 12 aa] | 0.6883 ± 0.00087 | 0.695 ± 0.05 |
| SNEHSSENTAGP [STE3 C-terminal 12 aa] | 0.696 ± 0.013 | 0.684 ± 0.014 |
| VQWSRPRRGDVL [LAM6 C-terminal 12 aa] | 0.7079 ± 0.0014 | 0.703 ± 0.051 |
| IAPSGKYYFPFG [YMR031W-A C-terminal 12 aa] | 0.718 ± 0.011 | 0.684 ± 0.011 |
| KKKKPAAEGAAK [TMA22 C-terminal 12 aa] | 0.696 ± 0.026 | 0.708 ± 0.043 |
| QPPAAAEGEAPK [BMH1 C-terminal 12 aa] | 0.712 ± 0.024 | 0.715 ± 0.026 |
| VMDDIISELTNE [KRE28 C-terminal 12 aa] | 0.713 ± 0.019 | 0.687 ± 0.046 |

| Sequence | protein stability index [1] | protein stability index (genetic background: wild type) |
| --- | --- | --- |
| TTWKTTCKIFGE [YBL055C C-terminal 12 aa] | 0.693 ± 0.019 | 0.712 ± 0.008 |
| GLDPEELEDLVT [PDS1 C-terminal 12 aa] | 0.688 ± 0.011 | 0.7032 ± 0.0028 |
| STDEKTSENETL [YPR071W C-terminal 12 aa] | 0.6746 ± 0.0056 | 0.656 ± 0.024 |
| FSAVSSWLSFIF [YNL046W C-terminal 12 aa] | 0.772 ± 0.033 | 0.725 ± 0.013 |
| NGKKNEAYEGFV [EXP1 C-terminal 12 aa] | 0.699 ± 0.015 | 0.722 ± 0.014 |
| STSDSENFMQQH [RPI1 C-terminal 12 aa] | 0.705 ± 0.013 | 0.729 ± 0.049 |
| DASALIEIQEKC [SST2 C-terminal 12 aa] | 0.669 ± 0.021 | 0.695 ± 0.059 |
| NTSLLFKKWEGS [CEM1 C-terminal 12 aa] | 0.707 ± 0.01 | 0.702 ± 0.04 |
| DSELGCCCCFFN [EDS1 C-terminal 12 aa] | 0.701 ± 0.03 | 0.696 ± 0.018 |
| IARSRRAFLSKL [MRP7 C-terminal 12 aa] | 0.843 ± 0.018 | 0.846 ± 0.089 |
| MESNDNLERVLS [APS1 C-terminal 12 aa] | 0.673 ± 0.038 | 0.695 ± 0.032 |
| KYVTQILYTPLQ [GAL83 C-terminal 12 aa] | 0.692 ± 0.0075 | 0.7144 ± 0.0036 |
| FSDLFSYSKSLV [ENT5 C-terminal 12 aa] | 0.705 ± 0.04 | 0.744 ± 0.013 |
| PISPIGNAGSQI [MIN10 C-terminal 12 aa] | 0.696 ± 0.00098 | 0.6629 ± 0.0022 |
| LVRQKREHEKKE [GPT2 C-terminal 12 aa] | 0.713 ± 0.0084 | 0.658 ± 0.021 |
| FYPVTSEFSKNK [HOB2 C-terminal 12 aa] | 0.7 ± 0.039 | 0.767 ± 0.013 |
| FKKSYKGVSKNL [MGM1 C-terminal 12 aa] | 0.704 ± 0.013 | 0.695 ± 0.022 |
| MWPMPSLPWNGM [TSR1 C-terminal 12 aa] | 0.727 ± 0.019 | 0.687 ± 0.017 |
| TTRETPLPPIPA [TYW1 C-terminal 12 aa] | 0.609 ± 0.012 | 0.642 ± 0.015 |

From the supplement of paper PMC10724198
